Source: FireProtDB (doi:10.1021/bi012084+)

Conditions: Geobacillus stearothermophilus; pH 7.5; Thermal; DSC; KH2PO4/KOH 100 mM; reversible: no; whole UniProt chain shown

B1: Glyceraldehyde-3-phosphate dehydrogenase wild type, P00362 (protein)
chain: MAVKVGINGFGRIGRNVFRAALKNPDIEVVAVNDLTDANTLAHLLKYDSVHGRLDAEVSVNGNNLVVNGKEIIVKAERDPENLAWGEIGVDIVVESTGRFTKREDAAKHLEAGAKKVIISAPAKNEDITIVMGVNQDKYDPKAHHVISNASCTTNCLAPFAKVLHEQFGIVRGMMTTVHSYTNDQRILDLPHKDLRRARAAAESIIPTTTGAAKAVALVLPELKGKLNGMAMRVPTPNVSVVDLVAELEKEVTVEEVNAALKAAAEGELKGILAYSEEPLVSRDYNGSTVSSTIDALSTMVIDGKMVKVVSWYDNETGYSHRVVDLAAYIASKGL
unfolding enthalpy (calorimetric): 1700 kJ/mol
